From PMC2722949 (Journal of molecular biology, 2009)
Where no end group is shown, it is not given here. [ ]: non-standard residue; d: D form. pY = N[C@@H](Cc1ccc(OP(=O)(O)O)cc1)C(=O)O

Columns and labels:
Experiment in all cases: NMR titration
[1] = biological target: Itk SH2 domain E308A/K309A double mutant (mouse (the paper calls its residue numbers 'mouse numbering'))
[2] = biological target: Itk SH2 domain, wild type (mouse (the paper calls its residue numbers 'mouse numbering'))
[3] = biological target: Btk SH2 domain, wild type (UniProt Q06187 270-387)
Sequence of Btk SH2 domain, wild type (Q06187 270-387): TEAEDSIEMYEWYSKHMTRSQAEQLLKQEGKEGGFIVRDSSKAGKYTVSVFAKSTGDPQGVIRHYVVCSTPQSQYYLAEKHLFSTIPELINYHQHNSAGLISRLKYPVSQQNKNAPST

Btk SH2 domain H364D = Btk SH2 domain H364D (UniProt Q06187 270-387, H364D)
Sequence of Btk SH2 domain H364D (Q06187 270-387 H364D): as the sequence (Q06187 270-387) above, with H95D counted along it

Btk SH2 domain S371P = Btk SH2 domain S371P (UniProt Q06187 270-387, S371P)
Sequence of Btk SH2 domain S371P (Q06187 270-387 S371P): as the sequence (Q06187 270-387) above, with S102P counted along it

Binder | Kd [1] [µM] | Kd [2] [µM] | Kd [3] [µM] | Kd (Btk SH2 domain H364D) [µM] | Kd (Btk SH2 domain S371P) [µM]
AD[pY]EPP [phospho-SLP76 peptide (ADpYEPP)] | 480 | 380 | – | – | –
GDG[pY]EEISPLLL [Btk SH2 phospho-peptide ligand (GDGpYEEISPLLL)] | – | – | 450 ± 40 | 500 ± 200 | 600 ± 110
